Measurements from paper PMC10538664 (2023).

Target: prototype SARS-CoV-2 tandem RBD homotrimer (PPP) (SARS-CoV-2, UniProt P0DTC2)
Assay: SPR

B1: fragment antigen binding (Fab) of mAb CB6 (Fab, V domains shown)
VH: EVQLVESGGGLVQPGGSLRLSCAASGFTVSSNYMSWVRQAPGKGLEWVSVIYSGGSTFYADSVKGRFTISRDNSMNTLFLQMNSLRAEDTAVYYCARVLPMYGDYLDYWGQGTLVTVSS
VL: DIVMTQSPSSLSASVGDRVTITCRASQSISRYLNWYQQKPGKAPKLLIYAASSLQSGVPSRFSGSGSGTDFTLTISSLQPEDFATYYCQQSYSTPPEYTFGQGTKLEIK
Kd: 24.3 nM
